Laboratory results published in paper PMC3713453 (Science signaling, 2013).

Tests used:
Experiment in all cases: ITC
Gal8_(C-CRD) I312V = Gal8_(C-CRD) I312V (human, UniProt O00214-2 228-359, I312V)
Gal8_(C-CRD) H328A = Gal8_(C-CRD) H328A (human, UniProt O00214-2 228-359, H328A)
Gal8_(C-CRD) V244A = Gal8_(C-CRD) V244A (human, UniProt O00214-2 228-359, V244A)
Gal8_(C-CRD) K246A = Gal8_(C-CRD) K246A (human, UniProt O00214-2 228-359, K246A)
Gal8_(C-CRD) I312L = Gal8_(C-CRD) I312L (human, UniProt O00214-2 228-359, I312L)
Sequence of Gal8_(C-CRD) I312L (O00214 186-317 I270L): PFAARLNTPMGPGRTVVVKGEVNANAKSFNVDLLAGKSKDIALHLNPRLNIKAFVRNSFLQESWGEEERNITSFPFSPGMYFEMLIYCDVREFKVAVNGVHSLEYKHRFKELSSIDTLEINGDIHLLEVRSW

Sequence of Gal8_(C-CRD) V244A (O00214 186-317 V202A): as the sequence (O00214 186-317 I270L) above, with V17A, L85I counted along it
Sequence of Gal8_(C-CRD) H328A (O00214 186-317 H286A): as the sequence (O00214 186-317 I270L) above, with L85I, H101A counted along it
Sequence of Gal8_(C-CRD) K246A (O00214 186-317 K204A): as the sequence (O00214 186-317 I270L) above, with K19A, L85I counted along it
Sequence of Gal8_(C-CRD) I312V (O00214 186-317 I270V): as the sequence (O00214 186-317 I270L) above, with L85V counted along it

binding result (Gal8_(C-CRD) I312V): binds
fold reduction of affinity against wild-type Gal8_(C-CRD) (Gal8_(C-CRD) H328A): 8 fold
binding result (Gal8_(C-CRD) V244A): binds
binding result (Gal8_(C-CRD) K246A): binds
binding result (Gal8_(C-CRD) I312L): binds
Binder: ARQNPGLAYGNPYS [NDP52_(368-381) peptide]
